For experiment [1], the target named is T1, MD36NT (MD36 from the N terminus to the proline-rich domain, SEQ ID NO:33) fused to yeast GAL4 transcription … (yeast; human, UniProt Q9Y613 1-640, limits assumed).
T1 construct: also called pACT-MD36NT
T1 sequence: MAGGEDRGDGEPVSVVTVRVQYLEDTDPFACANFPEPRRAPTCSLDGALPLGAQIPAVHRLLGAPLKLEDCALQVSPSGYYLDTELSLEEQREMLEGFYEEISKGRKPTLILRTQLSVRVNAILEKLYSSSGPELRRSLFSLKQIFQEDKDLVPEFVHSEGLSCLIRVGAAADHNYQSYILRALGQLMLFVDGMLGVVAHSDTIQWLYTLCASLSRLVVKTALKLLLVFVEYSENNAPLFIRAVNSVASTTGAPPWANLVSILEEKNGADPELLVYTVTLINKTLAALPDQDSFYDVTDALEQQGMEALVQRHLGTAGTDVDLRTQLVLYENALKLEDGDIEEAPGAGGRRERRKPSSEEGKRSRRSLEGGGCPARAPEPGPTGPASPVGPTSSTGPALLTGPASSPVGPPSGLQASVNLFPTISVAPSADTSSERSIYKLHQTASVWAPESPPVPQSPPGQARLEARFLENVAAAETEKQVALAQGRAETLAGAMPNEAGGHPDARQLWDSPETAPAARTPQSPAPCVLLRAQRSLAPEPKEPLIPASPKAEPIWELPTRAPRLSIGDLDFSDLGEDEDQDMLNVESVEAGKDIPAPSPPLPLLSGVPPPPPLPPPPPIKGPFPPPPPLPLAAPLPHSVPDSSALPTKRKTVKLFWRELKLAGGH
Description: yeast two-hybrid, HIS3 reporter growth on histidine-free medium. The source says:
(§1) The protein-protein interaction between MD36 and the profilin family was detected by the yeast two-hybrid system. Based on pGBT9 (CLONTECH), expression plasmids were constructed to express the coding regions of profiling I (Evangelista et al., Science, 276, 118-122, 1997; Imamura et al., EMBO J., 16, 2745-2755, 1997; Tanaka, Biochem. Biophys. Res. Commun., 267, 479-481, 2000), profilin II (Schluter et al., Biohim. Biophys. Acta, 1359, 97-109, 1997), and profiling IIL in the form fused to yeast GAL4-DNA-binding domain protein under control of yeast ADH1 promoter. These plasmids were named pG-PFNI, pG-PFNII and pG-PFNIII, respectively (yeast selection marker was TRP1). On the other hand, expression plasmids that express the full-length sequence (SEQ ID NO:1) of MD36, which is IRAP-BP protein, or the coding region from this N-terminus to the sequence (SEQ ID NO:33) including the proline-rich domain in the form fused to yeast […] activated domain protein under control of yeast ADH1 promoter was constructed based on pACT2 (CLONTECH), and named pACT-MD36 and pACT-MD36NT, respectively (yeast selection marker was LEU2). pG-PFNI, pG-PFNII, pG-PFNIII or, pGBT9 for control was co-transfected to yeast Saccharomyces cerevisiae Y190 together with pACT-MD36 or pACT-MD36NT, and yeast strains bearing plasmids from the two were selected on SD medium free of tryptophan and leucine. […]

Experiment [2] has as its target T2, full-length MD36 (SEQ ID NO:1) fused to yeast GAL4 transcription activated domain protein (yeast; human, UniProt Q9Y613 1-1164, limits assumed).
T2 construct: also called pACT-MD36; IRAP-BP protein
T2 sequence: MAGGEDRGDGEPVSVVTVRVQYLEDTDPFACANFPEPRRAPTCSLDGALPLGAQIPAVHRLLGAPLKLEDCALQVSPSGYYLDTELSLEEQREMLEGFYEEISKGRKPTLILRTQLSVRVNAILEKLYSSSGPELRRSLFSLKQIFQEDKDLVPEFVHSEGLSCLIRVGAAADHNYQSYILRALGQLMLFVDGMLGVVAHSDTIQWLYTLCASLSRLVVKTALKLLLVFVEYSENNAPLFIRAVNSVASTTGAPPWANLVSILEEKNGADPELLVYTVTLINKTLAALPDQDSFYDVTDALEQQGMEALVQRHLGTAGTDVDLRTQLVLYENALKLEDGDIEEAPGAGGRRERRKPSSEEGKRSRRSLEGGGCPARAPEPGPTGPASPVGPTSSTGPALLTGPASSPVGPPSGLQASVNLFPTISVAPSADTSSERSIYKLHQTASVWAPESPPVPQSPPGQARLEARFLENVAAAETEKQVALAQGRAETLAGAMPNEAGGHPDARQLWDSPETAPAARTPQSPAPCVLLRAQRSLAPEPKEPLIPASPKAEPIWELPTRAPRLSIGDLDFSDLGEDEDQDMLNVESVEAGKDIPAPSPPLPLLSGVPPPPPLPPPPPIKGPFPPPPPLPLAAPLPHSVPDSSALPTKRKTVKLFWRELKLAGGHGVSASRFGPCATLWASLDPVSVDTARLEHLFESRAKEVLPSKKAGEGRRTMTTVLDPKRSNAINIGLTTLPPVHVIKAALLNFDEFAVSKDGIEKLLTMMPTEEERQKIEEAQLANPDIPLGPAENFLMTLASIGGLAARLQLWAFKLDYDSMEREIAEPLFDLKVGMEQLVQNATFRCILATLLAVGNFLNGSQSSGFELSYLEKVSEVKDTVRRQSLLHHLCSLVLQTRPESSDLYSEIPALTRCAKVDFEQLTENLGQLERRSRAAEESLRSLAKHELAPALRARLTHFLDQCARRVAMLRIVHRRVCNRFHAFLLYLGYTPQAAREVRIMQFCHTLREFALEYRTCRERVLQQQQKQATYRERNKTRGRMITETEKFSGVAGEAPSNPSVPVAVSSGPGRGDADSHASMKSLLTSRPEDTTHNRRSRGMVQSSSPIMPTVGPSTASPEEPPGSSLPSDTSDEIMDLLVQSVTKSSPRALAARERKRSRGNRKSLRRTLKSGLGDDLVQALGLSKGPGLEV
The description is as above.
Excerpt: as §1

Experiment [3] concerns the target T1, MD36NT (MD36 from the N terminus to the …). Description: yeast two-hybrid, HIS3 reporter growth.
Excerpt: as §1

Experiment [4] concerns the target T2, full-length MD36 (SEQ ID NO:1) fused to …. The experiment can be described thus: yeast two-hybrid, HIS3 reporter growth.
Excerpt: as §1

B1: profilin II fused to yeast GAL4-DNA-binding domain protein (other)
chain: MKLLSSIEQACDICRLKKLKCSKEKPKCAKCLKNNWECRYSPKTKRSPLTRAHLTEVESRLERLEQLFLLIFPREDLDMILKMDSLQDIKALLTGLFVQDNVNKDAVTDRLASVETDMPLTLRQHRISATSSSEESSNKGQRQLTVSAGWQSYVDNLMCDGCCQEAAIVGYCDAKYVWAATAGGVFQSITPIEIDMIVGKDREGFFTNGLTLGAKKCSVIRDSLYVDGDCTMDIRTKSQGGEPTYNVAVGRAGRALVIVMGKEGVHGGTLNKKAYELALYLRRSDV
notes: also called PFN II; pG-PFNII
Take B1: the binding result in experiment [1] and in experiment [2] was “no binding” throughout.

B2: profilin IIL fused to yeast GAL4-DNA-binding domain protein (other)
chain: MKLLSSIEQACDICRLKKLKCSKEKPKCAKCLKNNWECRYSPKTKRSPLTRAHLTEVESRLERLEQLFLLIFPREDLDMILKMDSLQDIKALLTGLFVQDNVNKDAVTDRLASVETDMPLTLRQHRISATSSSEESSNKGQRQLTVSMAGWQSYVDNLMCDGCCQEAAIVGYCDAKYVWAATAGGVFQSITPIEIDMIVGKDREGFFTNGLTLGAKKCSVIRDSLYVDGDCTMDIRTKSQGGEPTYNVAVGRAGRVLVFVMGKEGVHGGGLNKKAYSMAKYLRDSGF
notes: Profilin IIL was cloned from human skeletal muscle-derived cDNA; also called PFN IIL
On to B2, for which the binding result in experiment [3] and in experiment [4] was “binds” throughout.

These data come from patent US20040072742A1 (Takeda / Millennium, published 2004).
